Measured values: the supplement of paper PMC10126150
± gives the standard deviation of the averaged measurements.

tested on: ATP; assay: switch fluorescence ratio, 500 uM ATP over buffer (Cy3 cluster intensity, sum of 5 cycles each) (fold (ratio)); higher = stronger signal-on switching upon ATP binding; sequences stand for … in TCGTCGGCAGCGTCAGATGTGTATAAGAGACAGTTTTTTTTTTTTTTTTTTTTTTTTT…TC; details: aptamer strand: ATP DNA aptamer (quencher-CACCTGGGGGAGTATTGCGGAGGAAGG + anchor), 100 nM annealed; ATP concentration: 500 uM
Method in brief: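 Values give the fluorescence ratio for each switch-domain sequence, averaged from per-cluster ratios of summed target-cycle to summed buffer-cycle Cy3 intensity. The Cy3-labelled switching-strand clusters sat on a modified Illumina MiSeq flow-cell, were annealed to 100 nM quencher-labelled ATP aptamer, and were imaged in selection buffer, then after 15 min with 500 uM ATP at 22 °C. Five cycles ran with NaOH stripping and re-annealing between them, and clusters outside 100-1000 RFU were excluded.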
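Further: ATP exposure 15 min at 22 °C before imaging.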

| Sequence | switch fluorescence ratio |
| --- | --- |
| TCTGGGGGGT | 1.02 ± 0.035 |
| TCTGGGGGTT | 1.02 ± 0.054 |
| TCTGGGTGGC | 0.996 ± 0.028 |
| TCTGGGTTAT | 0.988 ± 0.033 |
| TCTGGTTGGA | 1.04 ± 0.025 |
| TCTGTAGCGG | 1.13 ± 0.037 |
| TCTGTATACA | 0.989 ± 0.037 |
| TCTGTCTAGT | 1.01 ± 0.02 |
| TCTGTGAGTG | 0.973 ± 0.014 |
| TCTGTGCATA | 1.52 ± 0.1 |
| TCTGTGGCCC | 1.01 ± 0.028 |
| TCTGTGGGGA | 1.04 ± 0.045 |
| TCTGTGTATT | 1.03 ± 0.037 |
| TCTGTTCA | 1.005 ± 0.0075 |
| TCTGTTTACG | 0.996 ± 0.016 |
| TCTGTTTTAT | 0.976 ± 0.017 |
| TCTTAAAATT | 1.012 ± 0.0091 |
| TCTTAAAGAT | 1.06 ± 0.022 |
| TCTTAAAGGT | 0.986 ± 0.026 |
| TCTTAAGTGC | 1.07 ± 0.026 |
| TCTTACGCCA | 1.06 ± 0.016 |
| TCTTATGCTC | 0.98 ± 0.022 |
| TCTTCCGGTG | 1.68 ± 0.045 |
| TCTTCCTAGA | 1.031 ± 0.01 |
| TCTTCGGAGT | 1.03 ± 0.058 |

| Sequence | switch fluorescence ratio |
| --- | --- |
| TCTTCGGGGG | 1.07 ± 0.032 |
| TCTTGAATAA | 0.9856 ± 0.0072 |
| TCTTGAGCAT | 1.34 ± 0.13 |
| TCTTGAGGGA | 1 ± 0.02 |
| TCTTGATGGA | 0.9597 ± 0.0014 |
| TCTTGCATAG | 1.11 ± 0.025 |
| TCTTGGAACG | 0.998 ± 0.015 |
| TCTTGGACGA | 0.991 ± 0.025 |
| TCTTGGGCAT | 1.01 ± 0.04 |
| TCTTGGGGAG | 0.9815 ± 0.0083 |
| TCTTGGTTTC | 0.997 ± 0.013 |
| TCTTGTAAGT | 0.992 ± 0.023 |
| TCTTGTATAA | 0.9758 ± 0.0029 |
| TCTTGTATAG | 0.966 ± 0.032 |
| TCTTGTTATT | 0.9985 ± 0.0054 |
| TCTTGTTGGG | 1.01 ± 0.023 |
| TCTTGTTTTT | 0.977 ± 0.022 |
| TCTTTAATGG | 1.01 ± 0.042 |
| TCTTTATACT | 1.05 ± 0.034 |
| TCTTTATCCC | 1.18 ± 0.084 |
| TCTTTCATGT | 1.02 ± 0.02 |
| TCTTTGAAGT | 1 ± 0.019 |
| TCTTTGGGAC | 0.994 ± 0.028 |
| TCTTTTGGGG | 1.03 ± 0.024 |
| TCTTTTTTAG | 0.998 ± 0.036 |

| Sequence | switch fluorescence ratio |
| --- | --- |
| TCTTTTTTTA | 1.02 ± 0.06 |
| TCTTTTTTTT | 1 ± 0.041 |
| TGAAAACACG | 1.17 ± 0.22 |
| TGAAAATCGG | 0.965 ± 0.02 |
| TGAAACCACT | 1.1 ± 0.013 |
| TGAAACGCTG | 1.06 ± 0.04 |
| TGAAAGCCGG | 0.965 ± 0.045 |
| TGAAAGCGCC | 1.07 ± 0.03 |
| TGAAAGTGGA | 1.05 ± 0.034 |
| TGAAATAGGT | 0.99 ± 0.036 |
| TGAAATATGT | 0.987 ± 0.04 |
| TGAAATTTTA | 0.9926 ± 0.006 |
| TGAAATTTTT | 0.982 ± 0.029 |
| TGAACGACGG | 1.02 ± 0.073 |
| TGAACGGGCC | 1.036 ± 0.00055 |
| TGAACTGTTC | 1.04 ± 0.069 |
| TGAAGACTGA | 1 ± 0.012 |
| TGAAGATAAC | 1.02 ± 0.026 |
| TGAAGCCAGT | 1 ± 0.024 |
| TGAAGGACGT | 0.996 ± 0.019 |
| TGAAGGAGGG | 1.02 ± 0.06 |
| TGAAGGCCGG | 0.995 ± 0.033 |
| TGAAGGCGGG | 1 ± 0.039 |
| TGAAGGGGGC | 0.994 ± 0.045 |
| TGAAGGGGGT | 0.999 ± 0.032 |

| Sequence | switch fluorescence ratio |
| --- | --- |
| TGAAGGGTCA | 0.968 ± 0.022 |
| TGAAGGTACA | 1.034 ± 0.0031 |
| TGAAGGTTAC | 1.02 ± 0.012 |
| TGAAGTAACA | 1.06 ± 0.038 |
| TGAAGTAAGC | 1.09 ± 0.12 |
| TGAAGTAATC | 1.42 ± 0.43 |
| TGAAGTATGG | 0.9517 ± 0.0024 |
| TGAAGTCCTT | 1.005 ± 0.0037 |
| TGAAGTGTTG | 0.99 ± 0.019 |
| TGAATAAGAG | 1.01 ± 0.026 |
| TGAATATTGT | 1.04 ± 0.051 |
| TGAATCTAGA | 1.01 ± 0.019 |
| TGAATGATGG | 1.02 ± 0.015 |
| TGAATGTGGT | 0.97 ± 0.014 |
| TGAATTATGT | 0.985 ± 0.048 |
| TGAATTCTTT | 0.968 ± 0.041 |
| TGAATTTAT | 0.998 ± 0.012 |
| TGACAAAG | 0.9776 ± 0.0029 |
| TGACAAAGA | 1 ± 0.022 |
| TGACAATGTT | 0.994 ± 0.052 |
| TGACACTTAA | 1.07 ± 0.096 |
| TGACAGGATT | 0.9946 ± 0.0083 |
| TGACAGGGCT | 1.01 ± 0.011 |
| TGACCGCCGT | 1.06 ± 0.035 |
| TGACGAAGCG | 1.05 ± 0.035 |
